B1: Fc-scTRAIL-FAVSGAA (Fc fusion)
chain: AAHITGTRGRSNTLSSPNSKNEKALGRKINSWESSRSGHSFLSNLHLRNGELVIHEKGFYYIYSQTYFRFQEEIKENTKNDKQMVQYIYKYTSYPDPILLMKSARNSCWSKDAEYGLYSIYQGGIFELKENDRIFVSVTNEHLIDMDHEASFFGAFAVSGAAHITGTRGRSNTLSSPNSKNEKALGRKINSWESSRSGHSFLSNLHLRNGELVIHEKGFYYIYSQTYFRFQEEIKENTKNDKQMVQYIYKYTSYPDPILLMKSARNSCWSKDAEYGLYSIYQGGIFELKENDRIFVSVTNEHLIDMDHEASFFGAFAVSGAAHITGTRGRSNTLSSPNSKNEKALGRKINSWESSRSGHSFLSNLHLRNGELVIHEKGFYYIYSQTYFRFQEEIKENTKNDKQMVQYIYKYTSYPDPILLMKSARNSCWSKDAEYGLYSIYQGGIFELKENDRIFVSVTNEHLIDMDHEASFFGAFAVS

Columns and labels:
Assay in all cases: ELISA; TRAILR1-Fc or TRAILR2-Fc coated (200 ng/well in 0.1 M sodium carbonate buffer, pH 9.5), samples in 3% skim milk/PBS titrated 1:3 from 150 nM, 2 h room temperature, concentrations normalised to one scTRAIL unit, detected with anti-FLAG M2-HRP
[1] = biological target: TRAILR2-Fc (UniProt O14763)
[2] = biological target: T1, TRAILR2-Fc (UniProt O14763 56-210); conditions: both partners purified
T1 construct: TRAIL receptor 2 (TRAILR2); Probably the extracellular domain fused to an Fc

[3] = biological target: T2, TRAILR1-Fc (UniProt O00220 24-239); conditions: both partners purified
T2 construct: TRAIL receptor 1 (TRAILR1); Probably the extracellular domain fused to an Fc
T2 sequence (O00220 24-239): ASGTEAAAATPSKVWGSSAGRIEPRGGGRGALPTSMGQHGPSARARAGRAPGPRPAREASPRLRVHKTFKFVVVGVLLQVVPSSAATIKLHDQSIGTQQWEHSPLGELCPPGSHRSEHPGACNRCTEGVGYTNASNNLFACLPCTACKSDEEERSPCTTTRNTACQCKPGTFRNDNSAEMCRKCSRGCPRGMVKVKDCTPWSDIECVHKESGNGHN

Molecule | EC50 [1] [nM] | EC50 [2] [nM] | EC50 [3] [nM]
HC-scTRAIL (fusion of scTRAIL to hu225 IgG heavy chains) | 0.8 |  | 
LC-scTRAIL (fusion of scTRAIL to hu225 IgG light chains) | 0.9 |  | 
LC/HC-scTRAIL (fusion of scTRAIL to both hu225 IgG chains) | 3.4 |  | 
B1 |  | 1.1 | 7.3

From publication PMC5958125, “IgG-single-chain TRAIL fusion proteins for tumour therapy” (Scientific Reports, 2018)
